Consider 30 molecules from patent US20200270588A1, “GLUCOSYL TRANSFERASE POLYPEPTIDES AND METHODS OF USE” (Syngenta Participations AG, priority 2017, published 2020).

Residue numbers refer to the chain shown, from its start. In names and notes the source's numbering stands.

The labels stand for the following.
B1: I153Q: bx9 SEQ ID NO:1 mutant (protein)
chain: MASSRTGAGAGGRVVVFPFPFQGHFNPVMRLARALHARGLAITVFHSGALDPADYPADYRFVPVTVEADPKLLASEDIAAIVTTLNASCDAPFRARLSALLAAEGRDSVRCVFTDVSWNAVLTASSDLGVPALGMMTASAASLRDYMAYRTLQDKGYLPVKEERKEDPVPELPPYLVKDLLRVDTSDLEEFAELLARTVTAARRASGLIFNTFPLIETDTLAEIHKALSVPVFAVAPLNKLVPTATASLHGVVQADRGCLQWLDTQQPGSVLYVSFGSMAAMDPHEFVELAWGLADSKRPFVWVVRPNLIRGFESGALPDGVEDEVRGRGIVVAWAPQEEVLAHPAVGGFLTHNGWNSTVEAISEGVPMVCCPRHGDQFGNMRYVCDVWKVGTELVGEQLERGQVKAAIDRLFGTKEGEEIKERMKEFKIAAAKGIGIGVDVDETASPRTDLTDLVDLIKSF
modifications: Zea mays
B2: I153F: bx9 SEQ ID NO:1 mutant (protein)
chain: B1 chain with Q153F
modifications: Zea mays
B3: L194A: bx9 SEQ ID NO:1 mutant (protein)
chain: B1 chain with Q153I, L194A
modifications: Zea mays
B4: L194C: bx9 SEQ ID NO:1 mutant (protein)
chain: B1 chain with Q153I, L194C
modifications: Zea mays
B5: T220R: bx9 SEQ ID NO:1 mutant (protein)
chain: B1 chain with Q153I, T220R
modifications: Zea mays
B6: T220Q: bx9 SEQ ID NO:1 mutant (protein)
chain: B1 chain with Q153I, T220Q
modifications: Zea mays
B7: V199N: bx9 SEQ ID NO:1 mutant (protein)
chain: B1 chain with Q153I, V199N
modifications: Zea mays
B8: T220V: bx9 SEQ ID NO:1 mutant (protein)
chain: B1 chain with Q153I, T220V
modifications: Zea mays
B9: T220D: bx9 SEQ ID NO:1 mutant (protein)
chain: B1 chain with Q153I, T220D
modifications: Zea mays
B10: L194D: bx9 SEQ ID NO:1 mutant (protein)
chain: B1 chain with Q153I, L194D
modifications: Zea mays
B11: L194V: bx9 SEQ ID NO:1 mutant (protein)
chain: B1 chain with Q153I, L194V
modifications: Zea mays
B12: T220G: bx9 SEQ ID NO:1 mutant (protein)
chain: B1 chain with Q153I, T220G
modifications: Zea mays
B13: T220S: bx9 SEQ ID NO:1 mutant (protein)
chain: B1 chain with Q153I, T220S
modifications: Zea mays
B14: A202C: bx9 SEQ ID NO:1 mutant (protein)
chain: B1 chain with Q153I, A202C
modifications: Zea mays
B15: I153R: bx9 SEQ ID NO:1 mutant (protein)
chain: B1 chain with Q153R
modifications: Zea mays
B16: L194T: bx9 SEQ ID NO:1 mutant (protein)
chain: B1 chain with Q153I, L194T
modifications: Zea mays
B17: T198V: bx9 SEQ ID NO:1 mutant (protein)
chain: B1 chain with Q153I, T198V
modifications: Zea mays
B18: A202F: bx9 SEQ ID NO:1 mutant (protein)
chain: B1 chain with Q153I, A202F
modifications: Zea mays
B19: L195I: bx9 SEQ ID NO:1 mutant (protein)
chain: B1 chain with Q153I, L195I
modifications: Zea mays
B20: L194N: bx9 SEQ ID NO:1 mutant (protein)
chain: B1 chain with Q153I, L194N
modifications: Zea mays
B21: L194Q: bx9 SEQ ID NO:1 mutant (protein)
chain: B1 chain with Q153I, L194Q
modifications: Zea mays
B22: L194E: bx9 SEQ ID NO:1 mutant (protein)
chain: B1 chain with Q153I, L194E
modifications: Zea mays
B23: A202V: bx9 SEQ ID NO:1 mutant (protein)
chain: B1 chain with Q153I, A202V
modifications: Zea mays
B24: F210M: bx9 SEQ ID NO:1 mutant (protein)
chain: B1 chain with Q153I, F210M
modifications: Zea mays
B25: L194I: bx9 SEQ ID NO:1 mutant (protein)
chain: B1 chain with Q153I, L194I
modifications: Zea mays
B26: A202M: bx9 SEQ ID NO:1 mutant (protein)
chain: B1 chain with Q153I, A202M
modifications: Zea mays
B27: A202L: bx9 SEQ ID NO:1 mutant (protein)
chain: B1 chain with Q153I, A202L
modifications: Zea mays
B28: F210W: bx9 SEQ ID NO:1 mutant (protein)
chain: B1 chain with Q153I, F210W
modifications: Zea mays
B29: T220C: bx9 SEQ ID NO:1 mutant (protein)
chain: B1 chain with Q153I, T220C
modifications: Zea mays
B30: L194G: bx9 SEQ ID NO:1 mutant (protein)
chain: B1 chain with Q153I, L194G
modifications: Zea mays

The experiment can be described thus: UDP luminescence plate assay of E. coli extracts, saturation mutants of SEQ ID NO: 1, herbicide V. Type of experiment: biochemical, Zea mays. The note with it: improvement factor relative to w/t bx9 = 1.0, rounded to nearest 0.5; extract activity basis; compound V. How it is done: Competent BL21 (DE3) cells are transformed as in the foregoing examples and, following seed culturing, grown and autoinduced in plates in a 0.5-1 ml volume of autoinduction medium containing 50 ug/ml kanamycin. Plates are incubated at 37° C. and shaken at 900 rpm. Growth is monitored by taking 20 ul aliquots, diluting 10 fold into flat-bottomed 96 well microtiter plates and reading OD600n at t=0, 1, 2, 2½ and 3 hours if necessary. At a (corrected) OD600 nm˜0.2, plates are transferred to 20° C. and shaken overnight at 900 rpm in a Jencons VWR plate incubator. After ˜18-20 h the final OD600 readings are recorded and the plates centrifuged at 4600 rpm (bench top centrifuge) for 10 min at 4° C. The supernatant is discarded and the pellets then washed with 0.25 ml PBS by repeat centrifugation and removal of supernatant before freezing cell pellets at −80° C. To prepare extracts, plates are allowed to thaw for 30 min and then pellets are resuspended in 0.25 ml of a suitable lysis buffer (for example—50 mM Tris HCL buffer at pH 8.0, 5% glycerol containing 50 mM NaCl and lysonase) mixed, incubated at room temperature for a sufficient time for lysis to be near complete and then centrifuged to remove cell debris and 100 ul of supernatant extract removed to a 96 well V-shaped well plate and stored on ice prior to assay.
Optionally plate assays are stopped with brief heating to 95 C before returning to ice and addition of UDP-Glo detection reagent followed by incubation at lab temperature. […] In addition a UDP standard curve is run alongside each set of plate tests.
Making use of the ELISA assay it is then possible to calculate a specific activity (e.g. in Relative Luminescence Units (RLU)/min/ug bx protein) based upon the amount of each mutant bx9 polypeptide expressed in each well. […] The specific activity of the various test mutant extracts on the same plate are then expressed as a fraction of the specific activity of the w/t bx9 and thus the ‘improvement factor’ versus the w/t expressed as a decimal where, for example, ‘0.5’ means half the specific activity of the wild type and 2.0 means twice the specific activity of the wild type. However, as will be readily apparent to the skilled man, particularly in cases where the UDP assay signal was low (with poor signal to noise versus the background) and/or the ELISA measurement of bx protein also low such a method is prone to generate spurious high specific activity numbers and uncertain numbers.
Consider B1, for which the “Preferred amino acid substitutions and (IF) based on RLU/min/ul” value is listed as “Q,R,F(1.5)”.

In the case of B2, the “Preferred amino acid substitutions and (IF) based on RLU/min/ul” value is “Q,R,F(1.5)”.

As for B3, the “Most Preferred amino acid substitutions and (IF) based on RLU/min/ul” value is reported as 2.5.

In the case of B4, the “Most Preferred amino acid substitutions and (IF) based on RLU/min/ul” value was “C,N,V(3.0)”.

As to B5, the “Most Preferred amino acid substitutions and (IF) based on RLU/min/ul” value is reported as “S,R(2.5)”.

In the case of B6, the “Preferred amino acid substitutions and (IF) based on RLU/min/ul” value was “G,Q,D,V(1.0)”.

As to B7, the “Preferred amino acid substitutions and (IF) based on RLU/min/ul” value is recorded as “M,N(1.0)”.

As for B8, the “Preferred amino acid substitutions and (IF) based on RLU/min/ul” value is “G,Q,D,V(1.0)”.

Turning to B9, the “Preferred amino acid substitutions and (IF) based on RLU/min/ul” value is listed as “G,Q,D,V(1.0)”.

For B10, the “Preferred amino acid substitutions and (IF) based on RLU/min/ul” value is reported as 1.0.

B11: the “Most Preferred amino acid substitutions and (IF) based on RLU/min/ul” value is reported as “C,N,V(3.0)”.

Turning to B12, the “Preferred amino acid substitutions and (IF) based on RLU/min/ul” value is listed as “G,Q,D,V(1.0)”.

B13: the “Most Preferred amino acid substitutions and (IF) based on RLU/min/ul” value is recorded as “S,R(2.5)”.

As for B14, the “Preferred amino acid substitutions and (IF) based on RLU/min/ul” value is reported as “S,I,C,M(1.0)”.

As to B15, the “Preferred amino acid substitutions and (IF) based on RLU/min/ul” value is listed as “Q,R,F(1.5)”.

As to B16, the “Preferred amino acid substitutions and (IF) based on RLU/min/ul” value was 1.5.

As for B17, the “Most Preferred amino acid substitutions and (IF) based on RLU/min/ul” value is recorded as “V(2.0)”.

With B18, the “Preferred amino acid substitutions and (IF) based on RLU/min/ul” value is recorded as “T,I,V,L,F(1.5)”.

Consider B19, for which the “Preferred amino acid substitutions and (IF) based on RLU/min/ul” value is “I(1.0)”.

For B20, the “Most Preferred amino acid substitutions and (IF) based on RLU/min/ul” value is “C,N,V(3.0)”.

In the case of B21, the “Preferred amino acid substitutions and (IF) based on RLU/min/ul” value was found to be 1.5.

Turning to B22, the “Preferred amino acid substitutions and (IF) based on RLU/min/ul” value was 1.0.

As for B23, the “Preferred amino acid substitutions and (IF) based on RLU/min/ul” value was “T,I,V,L,F(1.5)”.

On to B24, for which the “Preferred amino acid substitutions and (IF) based on RLU/min/ul” value is listed as “M,W(1.0)”.

Regarding B25, the “Most Preferred amino acid substitutions and (IF) based on RLU/min/ul” value is on record as 2.0.

Consider B26, for which the “Preferred amino acid substitutions and (IF) based on RLU/min/ul” value is reported as “S,I,C,M(1.0)”.

Regarding B27, the “Preferred amino acid substitutions and (IF) based on RLU/min/ul” value is “T,I,V,L,F(1.5)”.

On to B28, for which the “Preferred amino acid substitutions and (IF) based on RLU/min/ul” value is “M,W(1.0)”.

As for B29, the “Preferred amino acid substitutions and (IF) based on RLU/min/ul” value is on record as “C,A,N,E,L,I,M(1.5)”.

In the case of B30, the “Preferred amino acid substitutions and (IF) based on RLU/min/ul” value is recorded as 1.0.
